B1: recombinant mouse AIM protein (other)
chain: ESPTKVQLVGGAHRCEGRVEVEHNGQWGTVCDDGWDRRDVAVVCRELNCGAVIQTPRGASYQPPASEQRVLIQGVDCNGTEDTLAQCELNYYVFDCSHEEDAGAQCENPDSDLLFIPEDVRLVDGPGHCQGRVEVLHQSQWSTVCKAGWNLQVSKVVCRQLGCGRALLTYGSCNKNTQGKGPIWMGKMSCSGQEANLRSCLLSRLENNCTHGEDTWMECEDPFELKLVGGDTPCSGRLEVLHKGSWGSVCDDNWGEKEDQVVCKQLGCGKSLHPSPKTRKIYGPGAGRIWLDDVNCSGKEQSLEFCRHRLWGYHDCTHKEDVEVICTDFDV
notes: no cleavage site is stated; also called Mouse rAIM; rAIM
B2: mouse AIM (apoptosis inhibitor of macrophage) fused with an HA-tag (other)
chain: B1 chain
notes: also called HA-AIM; AIM tagged with HA; not shown: HA tag

Experiments:
[1] = target: T1, mouse CD36 fused with a FLAG-tag at its C terminus, overexpressed on HEK293 cells (mouse, UniProt Q08857 1-472); experiment: confocal microscopy of HEK293 cells overexpressing mouse CD36-FLAG, cultured with mouse AIM for 3 hours
T1 construct: whole, on cells; also called CD36-FLAG; not shown: C-terminal FLAG tag
Procedure: CD36 is a twice-transmembrane-type molecule, is expressed on adipocytes and macrophages, and is involved in intracellular internalization of many molecules including fatty acids, LDL, and the like. Thus, HEK293 cells in which mouse CD36 fused with a FLAG-tag at its C terminus was overexpressed were produced, and the cells were cultured with mouse AIM for 3 hours. Subsequently, the cells were collected, stained using an anti-AIM antibody and an anti-CD36 antibody, and observed under a confocal microscope.

[2] = target: T2, endogenous FAS (fatty acid synthase) in mouse adipocytes (mouse, UniProt P19096 1-2504); experiment: precipitation of endocytosed HA-tagged rAIM from lysates of mouse adipose tissue with an anti-HA antibody, Western blot for FAS
T2 construct: also called cytosolic FAS
Procedure: Further, the endocytosed rAIM was precipitated using lysates derived from those adipose tissues to examine whether endogenous FAS was co-precipitated or not. That is, the presence of FAS in the precipitate was analyzed by Western blotting using HA-tagged rAIM and an anti-HA antibody.

T2 sequence (P19096 whole entry): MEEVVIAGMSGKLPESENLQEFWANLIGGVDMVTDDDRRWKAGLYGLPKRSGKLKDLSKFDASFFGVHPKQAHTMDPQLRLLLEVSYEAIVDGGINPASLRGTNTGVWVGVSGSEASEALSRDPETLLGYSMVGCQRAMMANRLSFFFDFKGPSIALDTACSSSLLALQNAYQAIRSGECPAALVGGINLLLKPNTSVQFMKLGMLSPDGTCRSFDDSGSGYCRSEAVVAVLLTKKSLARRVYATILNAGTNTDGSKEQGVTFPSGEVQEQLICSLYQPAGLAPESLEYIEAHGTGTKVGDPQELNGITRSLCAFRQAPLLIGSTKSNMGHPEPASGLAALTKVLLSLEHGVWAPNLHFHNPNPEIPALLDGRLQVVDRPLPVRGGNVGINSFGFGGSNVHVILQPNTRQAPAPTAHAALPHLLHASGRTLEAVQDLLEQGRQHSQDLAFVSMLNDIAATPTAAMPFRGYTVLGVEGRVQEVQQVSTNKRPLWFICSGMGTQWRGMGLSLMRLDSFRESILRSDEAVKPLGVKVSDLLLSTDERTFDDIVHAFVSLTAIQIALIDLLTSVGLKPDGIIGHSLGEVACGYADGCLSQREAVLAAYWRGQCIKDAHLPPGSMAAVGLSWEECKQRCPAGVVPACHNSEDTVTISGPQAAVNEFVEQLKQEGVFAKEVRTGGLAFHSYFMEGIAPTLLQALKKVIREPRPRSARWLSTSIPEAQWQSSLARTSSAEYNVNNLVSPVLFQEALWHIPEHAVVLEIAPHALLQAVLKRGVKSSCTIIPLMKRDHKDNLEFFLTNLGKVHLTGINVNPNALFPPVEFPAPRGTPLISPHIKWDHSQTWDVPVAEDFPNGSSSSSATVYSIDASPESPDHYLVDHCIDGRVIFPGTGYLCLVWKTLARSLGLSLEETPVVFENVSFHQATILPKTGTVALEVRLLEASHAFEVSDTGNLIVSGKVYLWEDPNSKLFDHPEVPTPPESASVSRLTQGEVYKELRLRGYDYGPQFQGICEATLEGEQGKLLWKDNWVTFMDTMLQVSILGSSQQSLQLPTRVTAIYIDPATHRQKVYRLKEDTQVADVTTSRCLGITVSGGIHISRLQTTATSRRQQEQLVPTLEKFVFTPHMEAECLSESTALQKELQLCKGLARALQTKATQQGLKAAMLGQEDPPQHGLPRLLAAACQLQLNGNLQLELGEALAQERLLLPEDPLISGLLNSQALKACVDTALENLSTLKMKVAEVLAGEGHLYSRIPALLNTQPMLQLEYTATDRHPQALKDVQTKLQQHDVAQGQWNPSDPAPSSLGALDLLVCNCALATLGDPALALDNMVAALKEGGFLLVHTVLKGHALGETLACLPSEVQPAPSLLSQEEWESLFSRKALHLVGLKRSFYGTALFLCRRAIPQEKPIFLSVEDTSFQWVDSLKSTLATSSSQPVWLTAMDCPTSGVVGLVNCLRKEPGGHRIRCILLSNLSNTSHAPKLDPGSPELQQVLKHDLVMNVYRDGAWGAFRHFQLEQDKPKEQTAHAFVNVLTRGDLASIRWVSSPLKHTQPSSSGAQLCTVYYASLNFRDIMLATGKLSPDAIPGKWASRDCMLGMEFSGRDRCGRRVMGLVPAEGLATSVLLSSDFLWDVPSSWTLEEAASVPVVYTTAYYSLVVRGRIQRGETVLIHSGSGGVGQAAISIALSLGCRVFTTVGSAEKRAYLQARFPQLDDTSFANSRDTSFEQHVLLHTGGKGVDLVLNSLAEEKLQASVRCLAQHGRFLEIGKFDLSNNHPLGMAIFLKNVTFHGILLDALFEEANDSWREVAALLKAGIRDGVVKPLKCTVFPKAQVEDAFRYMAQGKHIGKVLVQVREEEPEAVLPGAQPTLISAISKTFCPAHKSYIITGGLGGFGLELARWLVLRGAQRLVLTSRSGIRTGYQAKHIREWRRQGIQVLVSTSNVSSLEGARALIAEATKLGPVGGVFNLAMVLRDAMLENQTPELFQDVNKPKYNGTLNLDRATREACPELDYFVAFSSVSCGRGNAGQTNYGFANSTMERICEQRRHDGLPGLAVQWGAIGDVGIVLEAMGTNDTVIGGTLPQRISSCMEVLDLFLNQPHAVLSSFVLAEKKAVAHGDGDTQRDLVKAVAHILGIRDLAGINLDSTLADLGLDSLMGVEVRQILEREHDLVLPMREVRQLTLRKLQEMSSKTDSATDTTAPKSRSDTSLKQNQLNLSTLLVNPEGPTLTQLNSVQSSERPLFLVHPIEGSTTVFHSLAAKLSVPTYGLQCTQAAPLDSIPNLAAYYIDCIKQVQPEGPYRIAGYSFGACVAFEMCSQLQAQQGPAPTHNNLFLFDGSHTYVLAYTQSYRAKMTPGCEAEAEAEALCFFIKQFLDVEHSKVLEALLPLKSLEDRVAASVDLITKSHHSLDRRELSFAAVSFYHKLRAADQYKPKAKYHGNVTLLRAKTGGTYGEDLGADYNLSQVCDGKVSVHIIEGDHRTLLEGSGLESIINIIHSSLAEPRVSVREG
T1 sequence (Q08857 whole entry, the tested form may be a part): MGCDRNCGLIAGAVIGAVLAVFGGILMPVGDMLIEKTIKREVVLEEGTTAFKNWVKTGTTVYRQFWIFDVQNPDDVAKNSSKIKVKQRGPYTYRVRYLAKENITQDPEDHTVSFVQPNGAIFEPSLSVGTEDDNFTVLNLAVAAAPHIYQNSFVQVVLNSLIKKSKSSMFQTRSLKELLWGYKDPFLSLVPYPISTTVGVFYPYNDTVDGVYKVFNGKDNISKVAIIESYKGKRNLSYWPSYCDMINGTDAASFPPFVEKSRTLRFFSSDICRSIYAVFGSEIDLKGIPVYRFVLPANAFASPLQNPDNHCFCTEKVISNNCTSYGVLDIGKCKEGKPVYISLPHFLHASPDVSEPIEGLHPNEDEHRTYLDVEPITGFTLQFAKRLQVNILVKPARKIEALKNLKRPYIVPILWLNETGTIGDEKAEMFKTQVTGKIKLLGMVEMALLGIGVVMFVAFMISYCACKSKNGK

Binder	binding result [1]	binding result [2]
B1	binds	
B2		binds
